System: IκB-α
Assay: Immunoblot of nuclear IκB-α in transfected 293 cells
Assay type: cell-based, human
Conditions: transfected cells stimulated with TNF-α, vs PRMT2-N
Description: Small-scale preparation of nuclear extracts. A modified Dignam procedure (Dignam et al., Nucleic Acids Res. 11: 1475-89 (1983)) was used to prepare nuclear extracts from 293 cells. Cells were harvested, washed with PBS, resuspended in 1 ml Dignam buffer A, and transferred to pre-chilled microfuge tubes, which were spun at 1000 rpm for 1 minute. The supernatant was aspirated thoroughly, and pellets were carefully resuspended to avoid frothing, in 60 μl modified Dignam buffer A containing 0.1% Nonidet P-40 (NP40). Samples were incubated at 4° C. for approximately 10 minutes, and microcentrifuged for 10 minutes at 4° C. The cytoplasmic extract supernatant was diluted in 3 volumes of modified Dignam buffer D and frozen quickly. The pellets were resuspended in 40 μl Dignam buffer C. Samples were incubated for 15 minutes at 4° C. on a tumbler, and centrifuged again for 5 minutes at 4° C. The supernatant was diluted with 6 volumes of modified Dignam buffer D. Samples were frozen quickly in aliquots and stored at −70° C.
Western Blotting. Proteins resolved by SDS-polyacrylamide gel electrophoresis (PAGE) were transferred to polyvinylidene difluoride (PVDF) membranes. […]

B1: PRMT2: human PRMT-2 polypeptide, SEQ ID NO:2, expressed from pVR1012 vector with HA-tag (protein, listed as Homo sapiens)
chain: MATSGDCPRSESQGEEPAECSEAGLLQEGVQPEEFVAIADYAATDETQLSFLRGEKILILRQTTADWWWGERAGCCGYIPANHVGKHVDEYDPEDTWQDEEYFGSYGTLKLHLEMLADQPRTTKYHSVILQNKESLTDKVILDVGCGTGIISLFCAHYARPRAVYAVEASEMAQHTGQLVLQNGFADIITVYQQKVEDVVLPEKVDVLVSEWMGTCLLFEFMIESILYARDAWLKEDGVIWPTMAALHLVPCSADKDYRSKVLFWDNAYEFNLSALKSLAVKEFFSKPKYNHILKPEDCLSEPCTILQLDMRTVQISDLETLRGELRFDIRKAGTLHGFTAWFSVHFQSLQEGQPPQVLSTGPFHPTTHWKQTLFMMDDPVPVHTGDVVTGSVVLQRNPVWRRHMSVALSWAVTSRQDPTSQKVGEKVFPIWR
modifications: HA tag
  increase in nuclear IκB-α protein levels over the mutant control: ~8 fold
